# Experimental data: the Human Domainome abundance scans (Beltran et al. 2025)
# ± gives the uncertainty stated by the source.
# B1: PDZ and LIM domain protein 2, residues 284 to 339; numbered along this chain, Q96JY6 (parent)
# chain: HTCEKCSTSIANQAVRIQEGRYRHPGCYTCADCGLNLKMRGHFWVGDELYCEKHAR
# Variants of: B1
# Test: abundance fitness (aPCA) (normalised: wild type 0, dead -1); higher = more abundant; growth selection in yeast, the domain comes from the species named
# Conditions: Homo sapiens
row,Variant,abundance fitness
1,HTCEKCSTSIANQAVRIQEGRTRHPGCYTCADCGLNLKMRGHFWVGDELYCEKHAR [Y22T],-0.477 ± 0.11
2,HTCEKCSTSIANQAVRIQEGRRRHPGCYTCADCGLNLKMRGHFWVGDELYCEKHAR [Y22R],-0.333 ± 0.094
3,HTCEKCSTSIANQAVRIQEGRPRHPGCYTCADCGLNLKMRGHFWVGDELYCEKHAR [Y22P],-0.496 ± 0.14
4,HTCEKCSTSIANQAVRIQEGRYRHPGCYTCADCGLNLKMRGHFWVGDELYCEKNAR [H54N],-0.465 ± 0.33
5,HTCEKCSTSIANQAVRIQEGRYRHPGCYTCADCGLNLKMRGHFWVGDELYCEKRAR [H54R],-0.655 ± 0.087
6,HTCEKCSTSIANQAVRIQEGRYRHPGCYTCADCGLNLKMRGHFWVGDELYCELHAR [K53L],-0.135 ± 0.079
7,HTCEKCSTSIANQAVRIQEGRYRHPGCYTCADCGLNLKMSGHFWVGDELYCEKHAR [R40S],0.079 ± 0.073
8,HTCEKCSTSIANQTVRIQEGRYRHPGCYTCADCGLNLKMRGHFWVGDELYCEKHAR [A14T],-0.468 ± 0.11
9,HTCEKCSTSIANQAVRIQEGRYRHPGCYTCAICGLNLKMRGHFWVGDELYCEKHAR [D32I],-0.284 ± 0.11
10,HTCEKCSTSIANQAVRIQEGRYRHPGCYTCALCGLNLKMRGHFWVGDELYCEKHAR [D32L],-0.099 ± 0.075
11,HTCEKCSTSIANQAVRIQEGRYRHPGCYTCADCGLNLKMRGHFWVGDELYCEKHYR [A55Y],0.081 ± 0.073
12,HTCEKCSTSIANQAVRIQEGRYTHPGCYTCADCGLNLKMRGHFWVGDELYCEKHAR [R23T],-0.125 ± 0.089
13,HTCEKCSTSIANQAVRIQEGRYCHPGCYTCADCGLNLKMRGHFWVGDELYCEKHAR [R23C],-0.238 ± 0.11
14,HTCEKCSTSIANQAVRIQEGRYYHPGCYTCADCGLNLKMRGHFWVGDELYCEKHAR [R23Y],-0.303 ± 0.066
15,HTCEKCSTSIANQAVRIQEGRYRHPECYTCADCGLNLKMRGHFWVGDELYCEKHAR [G26E],0.277 ± 0.11
16,HTCEKCSTSIANQAVRIQEGRYRHPKCYTCADCGLNLKMRGHFWVGDELYCEKHAR [G26K],0.209 ± 0.084
17,HTCEKCSTSIANQAVRINEGRYRHPGCYTCADCGLNLKMRGHFWVGDELYCEKHAR [Q18N],-0.248 ± 0.29
18,HTCEKCSTSIANQAVRIEEGRYRHPGCYTCADCGLNLKMRGHFWVGDELYCEKHAR [Q18E],0.002 ± 0.12
19,HTLEKCSTSIANQAVRIQEGRYRHPGCYTCADCGLNLKMRGHFWVGDELYCEKHAR [C3L],-0.978 ± 0.16
20,HTCEKCSTSIANQAVRYQEGRYRHPGCYTCADCGLNLKMRGHFWVGDELYCEKHAR [I17Y],-0.437 ± 0.18
21,HTCEKCSTSIANQAVRRQEGRYRHPGCYTCADCGLNLKMRGHFWVGDELYCEKHAR [I17R],-0.599 ± 0.074
22,HTCEKCSTSIANQAVRDQEGRYRHPGCYTCADCGLNLKMRGHFWVGDELYCEKHAR [I17D],-0.232 ± 0.3
23,HTCEKCSTSIANQAVRLQEGRYRHPGCYTCADCGLNLKMRGHFWVGDELYCEKHAR [I17L],-0.121 ± 0.076
24,HTCEKCSTSIANQAVRIQEGRYRHPGCYTCADCGLNLKMRGHFWVGDELYYEKHAR [C51Y],-0.94 ± 0.3

row,Variant,abundance fitness
1,HTCEKCSTSIANQAVRIQEGRYRHPGCYTCADCGLNLKMRTHFWVGDELYCEKHAR [G41T],-0.083 ± 0.095
2,HTCEKCSTSIANQAVRIQEGRYRHPGCYTCADCGLNLKMRGHFWVGDELYCMKHAR [E52M],-0.152 ± 0.08
3,HTCEKCSTSIANQAVRIQEGRYRHPGCYTCADCGLNLKMRGHCWVGDELYCEKHAR [F43C],0.101 ± 0.13
4,HTCEKCSTSIANQAVRIQEGRYRHPGCYTCADCGLNLKMRGHDWVGDELYCEKHAR [F43D],0.087 ± 0.066
5,HTCEKCSTSIANQAVRIQEGRYRHPGCYTCDDCGLNLKMRGHFWVGDELYCEKHAR [A31D],-0.175 ± 0.11
6,HTCEKCSTSIANQAVRIQEGRYRHPGCYTCHDCGLNLKMRGHFWVGDELYCEKHAR [A31H],-0.257 ± 0.1
7,HTCEKCSTSIANQAVRIQEGRYRHPGCYTCVDCGLNLKMRGHFWVGDELYCEKHAR [A31V],-0.029 ± 0.075
8,HTCEKCSTSIANQAVRIQEGRYRHPGCYTCADCGLNLKMRGHFWSGDELYCEKHAR [V45S],-0.11 ± 0.072
9,HTCEKCSTSIANQAVRIQEGRYRHPGCYTCADCGLNLKMRGHFWYGDELYCEKHAR [V45Y],0.066 ± 0.062
10,HTCEKCSTSIANQAVRIQEGRYRHPGCYTCADCGLNLKMRGHFWCGDELYCEKHAR [V45C],-0.242 ± 0.16
11,HTCEKCSTSIANQAVRIQEGRYRHPGTYTCADCGLNLKMRGHFWVGDELYCEKHAR [C27T],-0.442 ± 0.071
12,HTCEKCSTSIANQAVRIQEGRYRHPGNYTCADCGLNLKMRGHFWVGDELYCEKHAR [C27N],-0.826 ± 0.33
13,HTCEKCSTSIANQAVRIQEGRYRHPGFYTCADCGLNLKMRGHFWVGDELYCEKHAR [C27F],-1.02 ± 0.3
14,HTCEKCSTSIANQAVRIQEGRYRHPGCYTCADCGLNLVMRGHFWVGDELYCEKHAR [K38V],-0.447 ± 0.098
15,HTCEKCSTSIANQAVRIQEGRYRHPGCYTCADCGLNLSMRGHFWVGDELYCEKHAR [K38S],0.056 ± 0.076
16,HTCEKCSTSIANQAVRIQEGRYRHPGCYTCADCGLNLAMRGHFWVGDELYCEKHAR [K38A],0.189 ± 0.1
17,HTCEKCSTSIANQAVRIQEGRYRHPGCYTCADCGLNLKMRGHFWVGDELYCEKHAW [R56W],-0.344 ± 0.084
18,GTCEKCSTSIANQAVRIQEGRYRHPGCYTCADCGLNLKMRGHFWVGDELYCEKHAR [H1G],-0.247 ± 0.36
19,HTCEKCSTSIANQAVRIQEVRYRHPGCYTCADCGLNLKMRGHFWVGDELYCEKHAR [G20V],-0.363 ± 0.069
20,HTCEKCSTSIANQAVRIQEGRYRHPGCYPCADCGLNLKMRGHFWVGDELYCEKHAR [T29P],-0.767 ± 0.28
21,HTCEKCSTSIANQAVRIQEGRYRHPGCYTCADCGLNLKNRGHFWVGDELYCEKHAR [M39N],0.095 ± 0.13
22,HTCEKCSTSIANQAVRIQEGRYRHPGCYTCADCGLNLKSRGHFWVGDELYCEKHAR [M39S],0.057 ± 0.064
23,HTCEKRSTSIANQAVRIQEGRYRHPGCYTCADCGLNLKMRGHFWVGDELYCEKHAR [C6R],-0.266 ± 0.096
